Experimental findings from PMC10099770 are described below.

The chains are these.
T1: 14-3-3, P63104
T1 chain: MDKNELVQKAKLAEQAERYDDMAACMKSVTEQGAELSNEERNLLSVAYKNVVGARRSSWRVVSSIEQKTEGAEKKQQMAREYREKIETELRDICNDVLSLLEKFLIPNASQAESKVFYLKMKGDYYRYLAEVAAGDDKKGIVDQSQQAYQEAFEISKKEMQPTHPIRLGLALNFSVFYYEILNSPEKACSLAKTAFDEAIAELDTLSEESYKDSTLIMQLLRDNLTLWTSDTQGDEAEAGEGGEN

B1: FLAG-TNK1, Q13470 S502A (protein)
chain: MLPEAGSLWLLKLLRDIQLAQFYWPILEELNVTRPEHFDFVKPEDLDGIGMGRPAQRRLSEALKRLRSGPKSKNWVYKILGGFAPEHKEPTLPSDSPRHLPEPEGGLKCLIPEGAVCRGELLGSGCFGVVHRGLWTLPSGKSVPVAVKSLRVGPEGPMGTELGDFLREVSVMMNLEHPHVLRLHGLVLGQPLQMVMELAPLGSLHARLTAPAPTPPLLVALLCLFLRQLAGAMAYLGARGLVHRDLATRNLLLASPRTIKVADFGLVRPLGGARGRYVMGGPRPIPYAWCAPESLRHGAFSSASDVWMFGVTLWEMFSGGEEPWAGVPPYLILQRLEDRARLPRPPLCSRALYSLALRCWAPHPADRPSFSHLEGLLQEAGPSEACCVRDVTEPGALRMETGDPITVIEGSSSFHSPDSTIWKGQNGRTFKVGSFPASAVTLADAGGLPATRPVHRGTPARGDQHPGSIDGDRKKANLWDAPPARGQRRNMPLERMKGISRALESVLSLGPRPTGGGSSPPEIRQARAVPQGPPGLPPRPPLSSSSPQPSQPSRERLPWPKRKPPHNHPMGMPGARKAAALSGGLLSDPELQRKIMEVELSVHGVTHQECQTALGATGGDVVSAIRNLKVDQLFHLSSRSRADCWRILEHYQWDLSAASRYVLARP
B2: FLAG-TNK1, Q13470 T392A (protein)
chain: MLPEAGSLWLLKLLRDIQLAQFYWPILEELNVTRPEHFDFVKPEDLDGIGMGRPAQRRLSEALKRLRSGPKSKNWVYKILGGFAPEHKEPTLPSDSPRHLPEPEGGLKCLIPEGAVCRGELLGSGCFGVVHRGLWTLPSGKSVPVAVKSLRVGPEGPMGTELGDFLREVSVMMNLEHPHVLRLHGLVLGQPLQMVMELAPLGSLHARLTAPAPTPPLLVALLCLFLRQLAGAMAYLGARGLVHRDLATRNLLLASPRTIKVADFGLVRPLGGARGRYVMGGPRPIPYAWCAPESLRHGAFSSASDVWMFGVTLWEMFSGGEEPWAGVPPYLILQRLEDRARLPRPPLCSRALYSLALRCWAPHPADRPSFSHLEGLLQEAGPSEACCVRDVAEPGALRMETGDPITVIEGSSSFHSPDSTIWKGQNGRTFKVGSFPASAVTLADAGGLPATRPVHRGTPARGDQHPGSIDGDRKKANLWDAPPARGQRRNMPLERMKGISRSLESVLSLGPRPTGGGSSPPEIRQARAVPQGPPGLPPRPPLSSSSPQPSQPSRERLPWPKRKPPHNHPMGMPGARKAAALSGGLLSDPELQRKIMEVELSVHGVTHQECQTALGATGGDVVSAIRNLKVDQLFHLSSRSRADCWRILEHYQWDLSAASRYVLARP
B3: FLAG-TNK1, Q13470 S68A (protein)
chain: MLPEAGSLWLLKLLRDIQLAQFYWPILEELNVTRPEHFDFVKPEDLDGIGMGRPAQRRLSEALKRLRAGPKSKNWVYKILGGFAPEHKEPTLPSDSPRHLPEPEGGLKCLIPEGAVCRGELLGSGCFGVVHRGLWTLPSGKSVPVAVKSLRVGPEGPMGTELGDFLREVSVMMNLEHPHVLRLHGLVLGQPLQMVMELAPLGSLHARLTAPAPTPPLLVALLCLFLRQLAGAMAYLGARGLVHRDLATRNLLLASPRTIKVADFGLVRPLGGARGRYVMGGPRPIPYAWCAPESLRHGAFSSASDVWMFGVTLWEMFSGGEEPWAGVPPYLILQRLEDRARLPRPPLCSRALYSLALRCWAPHPADRPSFSHLEGLLQEAGPSEACCVRDVTEPGALRMETGDPITVIEGSSSFHSPDSTIWKGQNGRTFKVGSFPASAVTLADAGGLPATRPVHRGTPARGDQHPGSIDGDRKKANLWDAPPARGQRRNMPLERMKGISRSLESVLSLGPRPTGGGSSPPEIRQARAVPQGPPGLPPRPPLSSSSPQPSQPSRERLPWPKRKPPHNHPMGMPGARKAAALSGGLLSDPELQRKIMEVELSVHGVTHQECQTALGATGGDVVSAIRNLKVDQLFHLSSRSRADCWRILEHYQWDLSAASRYVLARP
B4: FLAG-TNK1, Q13470 S434A (protein)
chain: MLPEAGSLWLLKLLRDIQLAQFYWPILEELNVTRPEHFDFVKPEDLDGIGMGRPAQRRLSEALKRLRSGPKSKNWVYKILGGFAPEHKEPTLPSDSPRHLPEPEGGLKCLIPEGAVCRGELLGSGCFGVVHRGLWTLPSGKSVPVAVKSLRVGPEGPMGTELGDFLREVSVMMNLEHPHVLRLHGLVLGQPLQMVMELAPLGSLHARLTAPAPTPPLLVALLCLFLRQLAGAMAYLGARGLVHRDLATRNLLLASPRTIKVADFGLVRPLGGARGRYVMGGPRPIPYAWCAPESLRHGAFSSASDVWMFGVTLWEMFSGGEEPWAGVPPYLILQRLEDRARLPRPPLCSRALYSLALRCWAPHPADRPSFSHLEGLLQEAGPSEACCVRDVTEPGALRMETGDPITVIEGSSSFHSPDSTIWKGQNGRTFKVGAFPASAVTLADAGGLPATRPVHRGTPARGDQHPGSIDGDRKKANLWDAPPARGQRRNMPLERMKGISRSLESVLSLGPRPTGGGSSPPEIRQARAVPQGPPGLPPRPPLSSSSPQPSQPSRERLPWPKRKPPHNHPMGMPGARKAAALSGGLLSDPELQRKIMEVELSVHGVTHQECQTALGATGGDVVSAIRNLKVDQLFHLSSRSRADCWRILEHYQWDLSAASRYVLARP
B5: FLAG-TNK1, Q13470 T91A (protein)
chain: MLPEAGSLWLLKLLRDIQLAQFYWPILEELNVTRPEHFDFVKPEDLDGIGMGRPAQRRLSEALKRLRSGPKSKNWVYKILGGFAPEHKEPALPSDSPRHLPEPEGGLKCLIPEGAVCRGELLGSGCFGVVHRGLWTLPSGKSVPVAVKSLRVGPEGPMGTELGDFLREVSVMMNLEHPHVLRLHGLVLGQPLQMVMELAPLGSLHARLTAPAPTPPLLVALLCLFLRQLAGAMAYLGARGLVHRDLATRNLLLASPRTIKVADFGLVRPLGGARGRYVMGGPRPIPYAWCAPESLRHGAFSSASDVWMFGVTLWEMFSGGEEPWAGVPPYLILQRLEDRARLPRPPLCSRALYSLALRCWAPHPADRPSFSHLEGLLQEAGPSEACCVRDVTEPGALRMETGDPITVIEGSSSFHSPDSTIWKGQNGRTFKVGSFPASAVTLADAGGLPATRPVHRGTPARGDQHPGSIDGDRKKANLWDAPPARGQRRNMPLERMKGISRSLESVLSLGPRPTGGGSSPPEIRQARAVPQGPPGLPPRPPLSSSSPQPSQPSRERLPWPKRKPPHNHPMGMPGARKAAALSGGLLSDPELQRKIMEVELSVHGVTHQECQTALGATGGDVVSAIRNLKVDQLFHLSSRSRADCWRILEHYQWDLSAASRYVLARP

One assay addresses T1, 14-3-3, P63104. Kind of assay: co-immunoprecipitation (IP: FLAG) with immunoblot quantification. To be noted: chain shown with the change; HEK293T cells; 3 biological replicates; parent: est. 1.0; read off a plot. For orientation: A western blot detects proteins with antibodies after separation by electrophoresis.
Regarding B1, the ratio to parent came out at 0.14. B2: the ratio to parent is 0.67.

On to B3, for which the ratio to parent came out at 0.8. Regarding B4, the ratio to parent is 0.88. On the same count and under the same terms, then B5, with 0.84.

Another assay has as its target FLAG-AKAP13 T2467A (UniProt Q12802). Put plainly: co-IP; FLAG construct precipitated from transfected HEK293T lysate on anti-DYKDDDDK resin or DYKDDDDK Fab-Trap agarose, 1 hour at 4 °C; lysis buffer 10 mM HEPES KOH pH 7.5, 150 mM KCl, 0.01% IGEPAL with protease and phosphatase inhibitors; washed with PBS three times; immunoblot for 14-3-3.
Sequence of UniProt Q12802 (Q12802 whole entry T2467A): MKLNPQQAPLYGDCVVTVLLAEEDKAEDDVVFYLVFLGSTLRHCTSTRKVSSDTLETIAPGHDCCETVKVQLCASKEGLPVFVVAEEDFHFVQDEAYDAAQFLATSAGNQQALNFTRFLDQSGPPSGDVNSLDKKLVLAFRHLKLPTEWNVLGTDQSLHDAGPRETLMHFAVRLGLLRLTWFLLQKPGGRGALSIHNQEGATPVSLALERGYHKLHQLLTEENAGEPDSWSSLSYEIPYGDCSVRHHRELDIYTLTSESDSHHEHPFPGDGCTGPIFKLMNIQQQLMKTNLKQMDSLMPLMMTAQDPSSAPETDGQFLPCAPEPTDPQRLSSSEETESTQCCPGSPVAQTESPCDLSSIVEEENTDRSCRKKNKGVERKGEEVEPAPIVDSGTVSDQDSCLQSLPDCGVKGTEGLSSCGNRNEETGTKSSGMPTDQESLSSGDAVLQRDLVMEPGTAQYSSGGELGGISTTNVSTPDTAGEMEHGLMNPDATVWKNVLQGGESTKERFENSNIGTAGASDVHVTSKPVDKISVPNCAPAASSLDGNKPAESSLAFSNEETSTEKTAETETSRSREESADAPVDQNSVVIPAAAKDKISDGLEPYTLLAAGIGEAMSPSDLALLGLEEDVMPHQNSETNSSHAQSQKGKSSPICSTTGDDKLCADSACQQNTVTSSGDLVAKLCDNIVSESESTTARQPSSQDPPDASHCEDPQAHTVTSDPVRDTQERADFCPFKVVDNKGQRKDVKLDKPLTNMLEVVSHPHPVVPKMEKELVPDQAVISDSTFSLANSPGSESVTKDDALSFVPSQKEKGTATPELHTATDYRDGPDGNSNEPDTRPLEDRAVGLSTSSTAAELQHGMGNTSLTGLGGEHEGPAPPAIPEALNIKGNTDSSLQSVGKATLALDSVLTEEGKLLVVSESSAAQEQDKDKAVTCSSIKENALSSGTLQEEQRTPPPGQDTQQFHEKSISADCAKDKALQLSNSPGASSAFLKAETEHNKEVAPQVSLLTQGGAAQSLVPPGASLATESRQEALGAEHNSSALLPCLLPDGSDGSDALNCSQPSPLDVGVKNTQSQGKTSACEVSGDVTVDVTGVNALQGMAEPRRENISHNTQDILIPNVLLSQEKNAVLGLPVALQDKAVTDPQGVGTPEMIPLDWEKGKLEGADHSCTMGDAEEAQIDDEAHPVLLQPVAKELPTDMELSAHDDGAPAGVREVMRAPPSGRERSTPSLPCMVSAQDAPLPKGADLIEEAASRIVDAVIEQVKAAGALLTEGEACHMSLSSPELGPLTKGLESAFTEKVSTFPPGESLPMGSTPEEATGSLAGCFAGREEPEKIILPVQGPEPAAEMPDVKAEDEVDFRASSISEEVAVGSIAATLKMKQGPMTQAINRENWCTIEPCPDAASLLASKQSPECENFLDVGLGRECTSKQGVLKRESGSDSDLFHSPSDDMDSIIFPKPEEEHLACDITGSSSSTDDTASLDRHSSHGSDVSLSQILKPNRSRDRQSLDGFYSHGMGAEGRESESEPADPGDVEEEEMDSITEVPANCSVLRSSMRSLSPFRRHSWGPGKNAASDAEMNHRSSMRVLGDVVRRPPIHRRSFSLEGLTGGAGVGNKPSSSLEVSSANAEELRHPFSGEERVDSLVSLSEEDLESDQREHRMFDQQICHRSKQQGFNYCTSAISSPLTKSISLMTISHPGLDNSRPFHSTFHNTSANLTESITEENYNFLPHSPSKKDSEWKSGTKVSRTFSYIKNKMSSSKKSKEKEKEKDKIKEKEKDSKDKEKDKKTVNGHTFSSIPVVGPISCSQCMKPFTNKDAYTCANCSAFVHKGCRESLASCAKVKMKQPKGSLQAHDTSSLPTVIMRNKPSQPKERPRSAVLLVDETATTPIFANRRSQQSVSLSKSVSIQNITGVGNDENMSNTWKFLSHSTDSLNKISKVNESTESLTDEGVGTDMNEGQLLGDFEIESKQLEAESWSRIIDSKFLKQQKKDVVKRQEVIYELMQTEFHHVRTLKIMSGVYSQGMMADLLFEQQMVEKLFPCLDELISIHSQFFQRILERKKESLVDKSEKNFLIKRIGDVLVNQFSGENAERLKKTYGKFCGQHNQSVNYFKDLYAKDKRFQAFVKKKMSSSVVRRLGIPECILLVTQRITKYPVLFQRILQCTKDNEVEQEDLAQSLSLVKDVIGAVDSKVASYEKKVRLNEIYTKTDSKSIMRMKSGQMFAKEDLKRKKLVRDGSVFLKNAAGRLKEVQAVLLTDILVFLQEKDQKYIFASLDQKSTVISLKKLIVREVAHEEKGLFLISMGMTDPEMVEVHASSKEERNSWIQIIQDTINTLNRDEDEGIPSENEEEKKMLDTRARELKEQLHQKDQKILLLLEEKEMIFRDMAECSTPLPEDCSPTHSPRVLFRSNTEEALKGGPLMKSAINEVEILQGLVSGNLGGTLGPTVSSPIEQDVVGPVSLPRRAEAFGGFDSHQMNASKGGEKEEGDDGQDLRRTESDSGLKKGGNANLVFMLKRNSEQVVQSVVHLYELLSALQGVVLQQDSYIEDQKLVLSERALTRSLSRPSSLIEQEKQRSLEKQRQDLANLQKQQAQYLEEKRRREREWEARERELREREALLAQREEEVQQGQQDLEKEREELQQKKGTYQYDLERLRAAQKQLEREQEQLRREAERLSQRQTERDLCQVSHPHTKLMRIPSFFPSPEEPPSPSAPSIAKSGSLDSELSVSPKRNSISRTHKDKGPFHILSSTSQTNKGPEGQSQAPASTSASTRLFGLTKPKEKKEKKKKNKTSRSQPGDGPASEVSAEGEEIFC
Details: not given
As to “14-3-3 (from UniProt P63104 1-245) (natural protein)”, the loss of co-precipitated 14-3-3 against wild-type AKAP13 is > 50%.
